Test results from article PMC9175105.

Tests used:
[1] = target: shedded GPIbα or glycocalicin (UniProt P07359)
[2] = target: shedded GPIbα or glycocalicin (UniProt P07359); assay: biomembrane force probe (BFP), force-clamp assay; bead-bead mode; VWF-A1 on the probe bead, glycocalicin on the target bead; single bonds held at clamp forces of 10-70 pN; bond lifetime vs force; beads without treatment
[3] = target: shedded GPIbα or glycocalicin (UniProt P07359); assay: biomembrane force probe (BFP), adhesion frequency assay; bead-bead mode; VWF-A1 covalently linked to the probe bead, glycocalicin to the target bead; 20 pN impingement, 0.2 s contact; 200 approach-contact-retract cycles per probe-target pair, five pairs

VWF-A1 with short N-AIM, high binder form, 1261^H-A1 (from UniProt P04275 1261-1472) (domain or fragment)
mean rolling velocity of washed human platelets (native GPIbα) on coated 1261^H-A1 at 800 s^-1 [1]: 3.15 μm s^−1
tethered platelet density; washed human platelets (native GPIbα) perfused at 800 s^-1 for 30 s over coated 1261^H-A1, no treatment [1]: 0.0053 μm^−2
peak bond lifetime at 20-25 pN [2]: 2.26 s
adhesion frequency (Pa) [3]: 0.13
